What is called Km is the concentration of substrate that gives half-maximal velocity.

In data set [1] the test system is NC(=O)C1=CN([C@@H]2O[C@H](COP(=O)(O)OP(=O)(O)OC[C@H]3O[C@@H](n4cnc5c(N)ncnc54)[C@H](OP(=O)(O)O)[C@@H]3O)[C@@H](O)[C@H]2O)C=CC1. As to the kind of experiment: purified protein. The note with it: FMN, pH 7.0, 37 °C.
Data set [2] concerns Cc1cc2nc3c(=O)[nH]c(=O)nc-3n(C[C@H](O)[C@H](O)[C@H](O)COP(=O)(O)O)c2cc1C. The data set is described as follows: purified protein. The note with it: NADPH, pH 7.0, 37 °C, varied: cofactor.

Turning to PpArsH (Pseudomonas putida KT2440), the Km in data set [1] worked out at 74 µM. The K0.5 in data set [2] was found to be 7.8 µM.

For the origin of these results see article PMC4447588.
